Columns and labels:
human IFNαJ1 [1] = target: T1, human IFNαJ1 (human, UniProt P01567 24-189); assay: cell-based or functional assay
human IFNαF [2] = target: T2, human IFNαF (human, UniProt P01568 24-189); assay: cell-based or functional assay
T2 chain: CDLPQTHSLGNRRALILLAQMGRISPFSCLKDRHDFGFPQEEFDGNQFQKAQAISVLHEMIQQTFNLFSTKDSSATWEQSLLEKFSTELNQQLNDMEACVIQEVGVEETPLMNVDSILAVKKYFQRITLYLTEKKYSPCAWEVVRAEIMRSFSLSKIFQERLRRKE

human IFNαWA [3] = target: T3, human IFNαWA (human, UniProt P05015 24-189); assay: cell-based or functional assay
human IFNαG [4] = target: T4, human IFNαG (human, UniProt P01569 24-189); assay: cell-based or functional assay
human IFNαK [5] = target: T5, human IFNαK (human, UniProt P05013 24-189); assay: cell-based or functional assay
human IFNαH2 [6] = target: T6, human IFNαH2 (human, UniProt P01570 24-189); assay: cell-based or functional assay
human IFNαC [7] = target: T7, human IFNαC (human, UniProt P01566 24-189); assay: cell-based or functional assay
human IFNω [8] = target: T8, human IFNω (human, UniProt P05000 24-195); assay: cell-based or functional assay
human IFNαJ1 [9] = target: T1, human IFNαJ1; assay: SPR (ProteOn); mAb captured on anti-human Fc, IFN as analyte
Description: (§1) Binding affinities of the antibodies were performed using SPR technology with ProteOn (Bio-Rad Hercules, Calif.). Goat anti-human Fc antibodies (manufacture) were amine-coupled to GLC chips (Bio-Rad Hercules, Calif.) using standard NHS/EDC chemistry as manufacture recommended. The anti-IFN mAbs were then loaded on the antibody coupled chip for 2 minutes at the flow rate of 30 μl/min. […] The chips were generated with 100 mM phosphoric acid in each direction between running different antigens. Data analysis was performed using ProteOn manager (Bio-Rad Hercules, Calif.). The sensorgrams were grouped by mAbs. After applying alignment and reference correction (using either interspot or blank channel referencing), the SPR data were fit globally to Langmuir model for kinetic rate constants (KD=koff/kₒₙ, where KD=equilibrium dissociation constant, kₒₙ=association rate constant, and koff=dissociation rate constant).

human IFNαF [10] = target: T2, human IFNαF; assay: as above
Description: as §1

human IFNαWA [11] = target: T3, human IFNαWA; assay: as above
Description: as §1

human IFNαG [12] = target: T4, human IFNαG; assay: as above
Description: as §1

human IFNαK [13] = target: T5, human IFNαK; assay: as above
Description: as §1

human IFNαD = target: T9, human IFNαD (human, UniProt A0A087WWS6 25-190); assay: as above
T9 construct: also called Alpha D (alpha 1); IFNα1
T9 chain: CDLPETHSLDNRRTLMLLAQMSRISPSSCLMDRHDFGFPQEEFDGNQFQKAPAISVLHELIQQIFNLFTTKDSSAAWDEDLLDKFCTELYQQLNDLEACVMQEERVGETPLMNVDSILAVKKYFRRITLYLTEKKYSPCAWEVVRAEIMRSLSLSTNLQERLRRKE
Description: as §1

human IFNαH2 [14] = target: T6, human IFNαH2; assay: as above
Description: as §1

human IFNαC [15] = target: T7, human IFNαC; assay: as above
Description: as §1

human IFNω [16] = target: T8, human IFNω; assay: as above
Description: as §1

human IFNβ = target: T10, human IFNβ (human, UniProt P01574 22-187); assay: as above
T10 construct: also called interferon-β
Description: as §1

human IFNω T80E variant = target: T11, human IFNω T80E variant (human, UniProt P05000 24-195); assay: complex formed, purified by size exclusion and co-crystallized
T11 construct: Expressed in HEK293F cells; used for the crystal structures; In the Fab357 crystal only residues R22-P39 and L118-L154 were seen (proteolytic cleavage during crystallization); also called IFN-omega (T80E)
T11 sequence (P05000 24-195 T103E limits assumed): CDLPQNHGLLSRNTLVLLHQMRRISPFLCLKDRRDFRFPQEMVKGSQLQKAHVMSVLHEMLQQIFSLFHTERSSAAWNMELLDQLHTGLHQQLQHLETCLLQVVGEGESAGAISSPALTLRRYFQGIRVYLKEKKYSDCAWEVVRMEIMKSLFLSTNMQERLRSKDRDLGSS

T4 sequence (P01569 24-189): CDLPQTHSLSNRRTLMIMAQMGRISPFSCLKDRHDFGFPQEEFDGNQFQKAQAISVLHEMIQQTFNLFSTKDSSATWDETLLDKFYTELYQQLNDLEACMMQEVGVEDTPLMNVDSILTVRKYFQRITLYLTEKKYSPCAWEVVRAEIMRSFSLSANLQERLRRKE
T6 sequence (P01570 24-189): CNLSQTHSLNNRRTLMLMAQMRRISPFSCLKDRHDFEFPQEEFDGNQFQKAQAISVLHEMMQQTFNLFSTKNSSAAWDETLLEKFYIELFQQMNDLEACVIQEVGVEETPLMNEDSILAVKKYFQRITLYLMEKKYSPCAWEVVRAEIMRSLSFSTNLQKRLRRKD
T8 sequence (P05000 24-195 limits assumed): as the sequence (P05000 24-195 T103E limits assumed) above, with E80T counted along it
T7 sequence (P01566 24-189): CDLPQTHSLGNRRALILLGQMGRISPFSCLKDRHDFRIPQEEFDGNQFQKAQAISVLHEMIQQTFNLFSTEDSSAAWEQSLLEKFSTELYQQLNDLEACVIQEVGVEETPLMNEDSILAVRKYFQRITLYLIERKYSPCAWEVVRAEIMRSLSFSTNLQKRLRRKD
T5 sequence (P05013 24-189): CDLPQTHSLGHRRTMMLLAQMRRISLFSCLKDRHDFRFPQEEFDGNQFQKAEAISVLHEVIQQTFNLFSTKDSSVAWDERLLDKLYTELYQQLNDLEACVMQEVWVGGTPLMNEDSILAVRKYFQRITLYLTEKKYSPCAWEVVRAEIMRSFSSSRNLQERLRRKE
T1 sequence (P01567 24-189): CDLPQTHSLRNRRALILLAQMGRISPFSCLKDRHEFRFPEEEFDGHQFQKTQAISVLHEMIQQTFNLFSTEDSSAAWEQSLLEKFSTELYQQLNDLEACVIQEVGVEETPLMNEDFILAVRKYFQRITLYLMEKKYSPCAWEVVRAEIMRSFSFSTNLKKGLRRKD
T10 sequence (P01574 22-187 limits assumed): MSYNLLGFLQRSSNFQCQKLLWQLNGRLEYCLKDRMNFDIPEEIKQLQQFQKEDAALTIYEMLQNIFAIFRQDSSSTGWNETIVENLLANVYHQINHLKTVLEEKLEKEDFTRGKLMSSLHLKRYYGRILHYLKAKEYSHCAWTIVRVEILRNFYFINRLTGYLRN

Row | Binder | IC50, ISRE reporter gene assay (human IFNαJ1 [1]) | IC50, ISRE reporter gene assay (human IFNαF [2]) | IC50, ISRE reporter gene assay (human IFNαG [4]) | IC50, ISRE reporter gene assay (human IFNαH2 [6]) | IC50, ISRE reporter gene assay (human IFNαC [7]) | IC50, ISRE reporter gene assay (human IFNω [8]) | Kd (human IFNαJ1 [9]) | Kd (human IFNαF [10]) | Kd (human IFNαWA [11]) | Kd (human IFNαG [12]) | binding result (human IFNαD) | Kd (human IFNαH2 [14]) | Kd (human IFNαC [15]) | Kd (human IFNω [16]) | binding result (human IFNβ) | binding result (human IFNω T80E variant) | also measured
1 | IFWM43 (antibody, V domains shown, Fab from a pIX phage display library, converted to human IgG1 mAb; also called anti IFNα/ω mAb M43) VH: QVQLVQSGAEVKKPGSSVKVSCKASGGTFSSYAISWVRQAPGQGLEWMGGIIPIFGTANYAQKFQGRVTITADESTSTAYMELSSLRSEDTAVYYCARDSWGSYYAALDYWGQGTLVTVSS VL: not shown | 1 nM | 3.7 nM | 5.3 nM | 51 nM | 14.9 nM | 18.5 nM | 0.4 nM | 0.9 nM | 0.6 nM | 0.6 nM | no binding (tested: antigen up to 100 nM) | 0.6 nM | 0.4 nM | 0.3 nM | – | – | IC50, ISRE reporter gene assay (human IFNαWA [3]): 9.2 nM; IC50, ISRE reporter gene assay (human IFNαK [5]): 10.4 nM; Kd (human IFNαK [13]): 0.3 nM
2 | IFWM88 (antibody, V domains shown, Fab from a pIX phage display library, converted to human IgG1 mAb) VH: QVQLVQSGAEVKKPGSSVKVSCKASGGTFSSYAISWVRQAPGQGLEWMGGIIPIFGTANYAQKFQGRVTITADESTSTAYMELSSLRSEDTAVYYCARHLEYAFPDKFDYWGQGTLVTVSS VL: not shown | 21.9 nM | 24.6 nM | 23.4 nM | – | 136 nM | – | 4.5 nM | 1 nM | 97.3 nM | 0.8 nM | no binding (tested: antigen up to 100 nM) | 5.5 nM | 3.2 nM | 53 nM | no binding (tested: antigen up to 100 nM) | – | –
3 | FabM43 (Fab, V domains shown, His-tagged Fab, IgG1/κ isotype, expressed in HEK293F cells; also called Fab of IFWM43; His-tagged FabM43) VH: QVQLVQSGAEVKKPGSSVKVSCKASGGTFSSYAISWVRQAPGQGLEWMGGIIPIFGTANYAQKFQGRVTITADESTSTAYMELSSLRSEDTAVYYCARDSWGSYYAALDYWGQGTLVTVSS VL: not shown | – | – | – | – | – | – | – | – | – | – | – | – | – | – | – | binds | –
4 | C2595 (antibody, V domains shown) VH: EVQLQQSGGDLVKPGGSLKLSCAASGFTFSSYGMSWVRQTPDKRLDWVSIITSGGSYTYYPDSVKGRFTISRDNAKNTLYLQMSSLKSEDTAMYYCARHAEGGGNYDYAMDYWGQGTSVTVSS VL: DIVMTQAAFSNPVTLGTSASISCRSSKSLLHSNGITYLYWYLQKPGQSPQLLIYQMSNLASGVPDRFSSSGSGIDFTLRISRVEAEDVGAYYCAQNLELPFTFGSGTKLEIK | 1.4 nM | 2.6 nM | 2.6 nM | 20.3 nM | 1.5 nM | 0.9 nM | – | – | – | – | – | – | – | – | – | – | –
5 | M3239 (antibody, human IgG1, V domains shown) VH: EVQLQQSGGDLVKPGGSLKLSCAASGFTFSSYGMSWVRQTPDKRLDWVSIITSGGSYTYYPDSVKGRFTISRDNAKNTLYLQMSSLKSEDTAMYYCARHAEGGGNYDYAMDYWGQGTSVTVSS VL: DIVMTQAAFSNPVTLGTSASISCRSSKSLLHSNGITYLYWYLQKPGQSPQLLIYQMSNLASGVPDRFSSSGSGIDFTLRISRVEAEDVGAYYCAQNLELPFTFGSGTKLEIK | – | – | – | – | – | – | 4.3 nM | 15.1 nM | – | 10.3 nM | no binding (tested: antigen up to 100 nM) | 61.6 nM | 1.3 nM | 4.5 nM | no binding (tested: antigen up to 100 nM) | – | binding result (human IFNαWA [11]): no binding (tested: antigen up to 100 nM); binding result (human IFNαK [13]): no binding (tested: antigen up to 100 nM)
6 | Fab357 (Fab, V domains shown, also called Fab of C2595) VH: EVQLQQSGGDLVKPGGSLKLSCAASGFTFSSYGMSWVRQTPDKRLDWVSIITSGGSYTYYPDSVKGRFTISRDNAKNTLYLQMSSLKSEDTAMYYCARHAEGGGNYDYAMDYWGQGTSVTVSS VL: DIVMTQAAFSNPVTLGTSASISCRSSKSLLHSNGITYLYWYLQKPGQSPQLLIYQMSNLASGVPDRFSSSGSGIDFTLRISRVEAEDVGAYYCAQNLELPFTFGSGTKLEIK | – | – | – | – | – | – | – | – | – | – | – | – | – | – | – | binds | –

Reference: patent publication US20140271648A1 (Janssen / Centocor, published 2014)
